We go through two molecules from article PMC10942606.

This assay has as its target T1, SpPCNA (recombinant S. pombe PCNA) (S. pombe), Q03392.
T1 chain: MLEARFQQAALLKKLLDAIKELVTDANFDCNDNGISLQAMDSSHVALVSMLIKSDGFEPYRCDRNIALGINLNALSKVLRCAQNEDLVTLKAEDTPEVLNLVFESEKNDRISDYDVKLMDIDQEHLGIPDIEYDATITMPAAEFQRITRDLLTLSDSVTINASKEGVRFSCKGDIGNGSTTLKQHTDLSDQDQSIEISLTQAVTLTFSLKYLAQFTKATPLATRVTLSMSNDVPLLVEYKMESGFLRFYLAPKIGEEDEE
Put plainly: ITC.

On to KNTAQSKPQQKSIMSFFGKK (modifications not checked) [Cdc27_PIP peptide], for which the Kd was 3.5 µM, the dH is -4.8 kCal.M^–1 and the stoichiometry N turned out to be 0.9.
For QLKLNNFF (modifications not checked) [Pcf1_PIP peptide] the same measures were 7.1 µM, -2.9 kCal.M^–1 and 0.97.
